For assay [1], the target named is T1, natural Bet v 1 (Indoor, Cat #NA-BV1-1) (Betula verrucosa (European white birch, …, UniProt P15494 2-160)).
T1 construct: Bought natural protein purified from birch pollen; also called nBet v 1
T1 sequence: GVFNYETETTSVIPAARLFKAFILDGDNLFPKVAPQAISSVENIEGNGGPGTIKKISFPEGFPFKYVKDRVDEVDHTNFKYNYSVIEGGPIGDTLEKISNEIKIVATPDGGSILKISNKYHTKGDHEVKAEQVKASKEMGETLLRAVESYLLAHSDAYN
Nature of the assay: SPR Biacore, mAb captured on anti-hFc, 25C.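 Also: rate constants from sensorgrams fitted to a 1:1 model with mass transport limitation, KD and t½ derived from kinetic constants, run in HBS-ET buffer at pH 7.4.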 A general note: In SPR one partner is held on a chip, and binding of the other changes the refractive index at the surface.

Assay [2] addresses T2, European Hornbeam (Car b 1 isoform 1A & 1B, MyBiosource, Cat #MBS1200018) (European Hornbeam, UniProt P38949 2-160).
T2 construct: Bought reagent
T2 sequence (looked up): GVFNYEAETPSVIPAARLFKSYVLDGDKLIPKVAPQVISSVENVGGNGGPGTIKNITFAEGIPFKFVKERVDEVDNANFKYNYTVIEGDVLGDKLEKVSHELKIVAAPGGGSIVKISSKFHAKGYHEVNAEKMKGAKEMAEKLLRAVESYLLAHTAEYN
Kind of assay: SPR Biacore, 25C.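 Also: binding of related allergens to purified monoclonal anti-Bet v 1 antibodies by surface plasmon resonance in HEPES-buffered saline pH 7.4, kinetics fitted to a 1:1 model with mass transport.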

Assay [3] concerns the target T3, Apple (Mal d 1, MyBiosource, Cat #MBS1224919) (Apple, UniProt P43211 2-159, limits assumed).
T3 construct: Bought reagent
T3 sequence (looked up): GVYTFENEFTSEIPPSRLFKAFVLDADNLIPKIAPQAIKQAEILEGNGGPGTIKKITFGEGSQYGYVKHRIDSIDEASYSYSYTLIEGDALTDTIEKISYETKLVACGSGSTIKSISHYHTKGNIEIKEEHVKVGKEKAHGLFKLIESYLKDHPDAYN
Nature of the assay: SPR Biacore, 25C.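 Also: binding of related allergens to purified monoclonal anti-Bet v 1 antibodies by surface plasmon resonance in HEPES-buffered saline pH 7.4, kinetics fitted to a 1:1 model with mass transport.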

Assay [4] addresses T4, Alder (Aln g 1, MyBiosource, Cat #MBS1041484) (Alder, UniProt P38948 2-160, limits assumed).
T4 construct: Bought reagent
T4 sequence (looked up): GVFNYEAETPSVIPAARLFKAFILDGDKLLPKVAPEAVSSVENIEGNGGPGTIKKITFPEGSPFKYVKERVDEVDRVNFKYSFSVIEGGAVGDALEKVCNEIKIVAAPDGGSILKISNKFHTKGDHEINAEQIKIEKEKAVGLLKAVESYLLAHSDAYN
Nature of the assay: SPR Biacore, 25C.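 Also: binding of related allergens to purified monoclonal anti-Bet v 1 antibodies by surface plasmon resonance in HEPES-buffered saline pH 7.4, kinetics fitted to a 1:1 model with mass transport.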

Assay [5] deals with T1, natural Bet v 1 (Indoor, Cat #NA-BV1-1). Kind of assay: SPR Biacore, mAb captured on anti-hFc, 37C.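 Also: purified anti-Bet v 1 monoclonal antibodies, HBS-ET running buffer pH 7.4, rate constants from 1:1 model fit with mass transport limitation, KD and t½ calculated from kinetic constants.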
The target in assay [6] is T5, Celery (Api g 1, MyBiosource, Cat #MBS1171376) (Celery, UniProt P49372 1-154, limits assumed).
T5 construct: Bought reagent
T5 sequence (looked up): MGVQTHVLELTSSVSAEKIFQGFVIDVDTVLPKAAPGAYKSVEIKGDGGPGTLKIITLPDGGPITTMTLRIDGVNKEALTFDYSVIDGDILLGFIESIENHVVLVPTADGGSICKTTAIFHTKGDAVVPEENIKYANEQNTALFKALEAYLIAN
Nature of the assay: SPR Biacore, 25C.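 Also: binding of related allergens to purified monoclonal anti-Bet v 1 antibodies by surface plasmon resonance in HEPES-buffered saline pH 7.4, kinetics fitted to a 1:1 model with mass transport.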

Usually Kd stands for the constant that tells how readily two partners part at equilibrium. Lower therefore signals a tighter complex. For orientation: koff means a measure of how fast the partners let go of each other. A low value points to a long-lived complex. For orientation: kon means the second-order rate constant of association. Lower therefore signals slow association. For orientation: t½ means the time needed for the level to fall by half in the phase considered. A low value points to fast loss.

B1: H4H17033P (antibody, human IgG4, V domains shown)
VH: QVQLVQSGAEVKKPGASVKVSCKASGYTFAAHYMHWVRQAPGQGLEWMGWINTYTGGTNYGQKFQGRVTMTRDTSITTAYMELSRLRSDDTAVYYCARDRRNWNFVFEYWGQGTLVTVSS
VL: DIQMTQSPSSLSASVGDRVTISCRASQNIKNYLNWYQQKPGKAPKLLIYEASNLQSGAPSRFSGSGSGTDFTLTISSLEPEDFATYYCQQSFSIPWTFGQGTKVEIK
Consider B1, for which, in assay [1], the “100 nM natural Bet v 1 Bound (RU)” value turned out to be 61 RU, the dissociation constant (Kd) came to 1.19 nM, the off-rate (koff) came to 0.000469 s⁻¹ and the kon amounted to 394000 M⁻¹ s⁻¹. Also, the t½ in assay [1] amounted to 25 min. The binding result in assay [2] was “no binding (tested: 100 nM)”. Moreover, in assay [3], the binding result is “no binding (tested: 100 nM)”. The binding result in assay [4] is “no binding (tested: 100 nM)”. Besides, in assay [5], the “100 nM natural Bet v 1 Bound (RU)” value stood at 74 RU, the Kd was 1.9 nM, the koff came to 0.00119 s⁻¹ and the association rate constant (kon) amounted to 627000 M⁻¹ s⁻¹. In assay [5], this molecule gave a t½ of 10 min.

B2: H4H16987P (antibody, human IgG4 S228P, kappa, V domains shown)
VH: EVQLVESGGGLVQPGGSLRLSCAASGFTVSSNSMSWVRQAPGEGLEWVSVIFSGGITYYSDSVKGRFTISRHNSKNTLYLQMNSLRTEDTAVYYCARHSNWNFDAFDIWGQGTMVTVSS
VL: DIQMTQSPSSLSASVGDRVTITCRASQSFDTYLNWYQQKPGKAPNLLIYATSSLQSGVPSRFSGSGSGTDFTLTISSLQPEDFGTYYCQQSYSIPYTFGQGTKLEIKR
notes: human IgG4; also called MAB4
With B2, in assay [1], the “100 nM natural Bet v 1 Bound (RU)” value was 61 RU, the Kd was 2.77 nM, the off-rate (koff) was found to be 0.00114 s⁻¹ and the kon is 410000 M⁻¹ s⁻¹. The molecule also had a t½ in assay [1] of 10 min. In addition, the binding result in assay [2] is “no binding (tested: 100 nM)”. Besides, the binding result in assay [3] is “no binding (tested: 100 nM)”. Also, the binding result in assay [6] is given as “no binding (tested: 100 nM)”. Further, in assay [5], the “100 nM natural Bet v 1 Bound (RU)” value was 74 RU, the dissociation constant (Kd) is 9.16 nM, the koff was 0.00477 s⁻¹ and the association rate constant (kon) came out at 520000 M⁻¹ s⁻¹. In addition, the t½ in assay [5] was found to be 2.4 min.

B3: H4H16979P (antibody, human IgG4, V domains shown)
VH: QVQLVQSGAEVKKPGASVKVSCKASGYTFIAYYLHWVRQAPGQGLEWMGLLNPYTGGSYYTQKFQGRVTMTRDTSIDTAYMELNSLRSDDTAIYYCARDKRSYYIPYAFEIWGQGTMVTVSS
VL: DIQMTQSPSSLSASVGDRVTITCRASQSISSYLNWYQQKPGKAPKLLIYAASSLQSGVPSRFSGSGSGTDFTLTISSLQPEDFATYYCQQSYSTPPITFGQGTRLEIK
As for B3, in assay [1], the “100 nM natural Bet v 1 Bound (RU)” value amounted to 41 RU, binding was put at a Kd of 1.21 nM, the dissociation rate constant (koff) stood at 0.000278 s⁻¹ and the kon was 230000 M⁻¹ s⁻¹. Besides, the t½ in assay [1] worked out at 42 min. Also, the binding result in assay [2] is given as “no binding (tested: 100 nM)”. Also, the binding result in assay [3] was “no binding (tested: 100 nM)”. For the same molecule, the binding result in assay [6] was “no binding (tested: 100 nM)”. In addition, in assay [4], the binding result was “no binding (tested: 100 nM)”. In addition, in assay [5], the “100 nM natural Bet v 1 Bound (RU)” value worked out at 52 RU; the affinity, expressed as Kd, was 1.8 nM; the koff stood at 0.000616 s⁻¹; the kon was 342000 M⁻¹ s⁻¹. The same molecule registered a t½ in assay [5] of 19 min.

B4: H4H16992P (antibody, human IgG4 S228P, kappa, V domains shown)
VH: QVQLQESGPGLVKPSETLSLTCSVSGGSITNYFWTWIRQSPGKGLEWIGYIYYSGGTNYNPSLKSRVTISIDTSKNQFSLNMNSVTAADTAVYYCAGSYYYGVDVWGQGTTVTVSS
VL: EIVLTQSPATLSLSPGERATLSCRASQSIKSFLAWYRQKPGQAPRLLIYDASNRPTGIPARFSGSGSGTDFTLTINSLESEDFAVYFCQQRNNWPFTFGPGTKVDIKR
notes: human IgG4; also called REGN5713; MAB1
Take B4: the binding result in assay [3], in assay [6] and in assay [4] was “no binding (tested: 100 nM)” throughout.

B5: H4H16946P (antibody, human IgG4, V domains shown)
VH: EVQLVESGGGLVQPGGSLRLSCVASGFTFSNYDMNWVRQAPGEGLEWISYISYSDHNIYYIDSVKGRFTISRDNAKNSLYLQMNSLRAEDTAIYYCAREALASSSFDYWGQGTLVTVSS
VL: EIVMTQSPATLSVSPGERVTLSCRASQSVSGNLAWYQQKPGQAPRLLIYSASTGATGVPARFSGSGSGTEFTLTISSLQSEDFALYYCQQYNKWPRTIGQGTKVEIK
For B5, in assay [1], the “100 nM natural Bet v 1 Bound (RU)” value was 74 RU, the Kd stood at 0.982 nM, the dissociation rate constant (koff) stood at 0.000201 s⁻¹ and the kon is 205000 M⁻¹ s⁻¹. For the same molecule, the t½ in assay [1] came to 58 min. Moreover, the binding result in assay [3] is given as “no binding (tested: 100 nM)”. For the same molecule, the binding result in assay [6] is given as “no binding (tested: 100 nM)”. For the same molecule, the binding result in assay [4] is on record as “no binding (tested: 100 nM)”. Moreover, in assay [5], the “100 nM natural Bet v 1 Bound (RU)” value came out at 93 RU, binding was characterised by a dissociation constant (Kd) of 2.08 nM, the koff was determined as 0.000601 s⁻¹ and the on-rate constant (kon) amounted to 289000 M⁻¹ s⁻¹. The same molecule gave a t½ in assay [5] of 19 min.

B6: H4H17028P (antibody, human IgG4, V domains shown)
VH: QVQLVESGGGVVQPGRSLRLSCAASGFTFSRYAIHWVRQAPGKGLEWVAVISYDGDDKYYGDSVKGRFTISRDNSKTMVYLHMNSLRTEDTAVYYCAKDGYSLYGKDYFDYWGQGTLVTVSS
VL: EIVLTQSPGTLPLSPGERATLSCRASQSITNSYLAWYQQKPDQAPRLLIYGASSRATGIPDRFSGSESGTDFTLTISRLEPEDFAVYYCQQYVRSPWTFGQGTKVEIK
Take B6: in assay [1], the “100 nM natural Bet v 1 Bound (RU)” value turned out to be 63 RU; the affinity, expressed as Kd, was 3.79 nM; the koff is 0.00107 s⁻¹; the kon amounted to 281000 M⁻¹ s⁻¹. In addition, the t½ in assay [1] stood at 11 min. In addition, in assay [3], the binding result was “no binding (tested: 100 nM)”. Moreover, in assay [6], the binding result is “no binding (tested: 100 nM)”. In assay [5], the “100 nM natural Bet v 1 Bound (RU)” value came out at 71 RU, binding was put at a Kd of 7.77 nM, the koff is 0.0029 s⁻¹ and the on-rate constant (kon) worked out at 373000 M⁻¹ s⁻¹. Moreover, the t½ in assay [5] was 3.9 min.

B7: H4H17038P2 (antibody, human IgG4 S228P, kappa, V domains shown)
VH: EVQLVESGGDLVQPGGSLRLSCAASGFTFSSYEMNWVRQAPGKGLEWVSFISDSSSNIYYADSVKGRFTISRDNAKKSLYLQMTSLRAEDTAVYYCAREAIGSTSFDNWGQGTLVTVSS
VL: EIVMTQSPATLSVSPGERATLSCRASQSVSSSLAWYQQKPGQAPRRLIYSASTRATGIPARFSGSGSGTEFTLTISSLQSEDFAIYYCHQYNNWPLTFGGGTKVEIKR
notes: human IgG4; also called REGN5714; MAB3
For the molecule B7, the binding result in assay [3], in assay [6] and in assay [4] was “no binding (tested: 100 nM)” throughout.

B8: H4H16971P (antibody, human IgG4, V domains shown)
VH: QVQLVESGGGVVQPGRSLRLSCAASGFTFSSYGLHWVRQAPGKGLEWVAVISDDGSYKFYADSMKGRFTISRDNSKNTLYLQMNSLRAEDTAVYYCAKDRGRSGWYYFDYWGQGTLVTVSS
VL: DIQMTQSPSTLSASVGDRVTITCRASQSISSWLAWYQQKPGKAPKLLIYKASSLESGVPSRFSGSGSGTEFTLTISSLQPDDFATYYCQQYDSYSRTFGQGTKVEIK
Take B8: in assay [1], the “100 nM natural Bet v 1 Bound (RU)” value came to 57 RU; the affinity, expressed as Kd, was 3.26 nM; the dissociation rate constant (koff) came out at 0.000781 s⁻¹; the kon was determined as 240000 M⁻¹ s⁻¹. This molecule also showed a t½ in assay [1] of 15 min. Also, the binding result in assay [2] was “no binding (tested: 100 nM)”. Besides, the binding result in assay [6] is “no binding (tested: 100 nM)”. Also, in assay [5], the “100 nM natural Bet v 1 Bound (RU)” value stood at 66 RU, the Kd turned out to be 6.93 nM, the koff came to 0.00244 s⁻¹ and the kon amounted to 352000 M⁻¹ s⁻¹. Further, in assay [5], the t½ stood at 4.7 min.

B9: H4H17031P (antibody, human IgG4, V domains shown)
VH: QVQLQQWGAGLLKPSETLSLTCVVYGESFGNYHWNWIRQSPGKRLEWIGEINQNGHTNYNPSLKSRVTISVDTSKIQFSLRLNSVTAADTAVYFCARGHNYVNSYFGLDVWGQGTTVTVSS
VL: EIVMTQSPATLSVSPGERATLSCRTSQSVSISLAWYQRKPGQAPRLLIFGSSTRATGVPARFSGSGSGTEFTLTISSLQSEDFAVYYCQQYNNWPYTFGQGTKLEIK
Take B9: in assay [1], the “100 nM natural Bet v 1 Bound (RU)” value was determined as 54 RU, the dissociation constant Kd amounted to 13.5 nM, the dissociation rate constant (koff) came to 0.00168 s⁻¹ and the on-rate (kon) worked out at 124000 M⁻¹ s⁻¹. Further, in assay [1], the t½ stood at 6.8 min. Further, in assay [3], the binding result is listed as “no binding (tested: 100 nM)”. Moreover, the binding result in assay [6] is “no binding (tested: 100 nM)”. In addition, in assay [5], the “100 nM natural Bet v 1 Bound (RU)” value stood at 63 RU, the Kd was 27.9 nM, the off-rate (koff) came to 0.00544 s⁻¹ and the kon came to 485000 M⁻¹ s⁻¹. This molecule also had a t½ in assay [5] of 2.1 min.

These data come from patent publication US20240083986A1 (published 2024).
